What is called stoichiometry N is the number of molecules, sites or subunits per partner or assembly.

Consider 4 molecules from publication PMC12141716, “An archaeal nucleoid-associated protein binds an essential motif in DNA replication origins” (Nature Communications, 2025).

Data set [1] concerns the target UBP (ucm-binding protein), recombinant wild type (Sulfolobus islandicus REY15A) (UniProt F0NFD3). Put plainly: crystal structure; DNA-free UBP, two crystal forms (C2221 and twinned P21 with four dimers in the asymmetric unit); sodium acetate pH 4.8-5.2, PEG6000, 20 °C.
For data set [2], the target named is T1, UBP (Sulfolobus islandicus REY15A, UniProt F0NFD3 1-111).
T1 sequence: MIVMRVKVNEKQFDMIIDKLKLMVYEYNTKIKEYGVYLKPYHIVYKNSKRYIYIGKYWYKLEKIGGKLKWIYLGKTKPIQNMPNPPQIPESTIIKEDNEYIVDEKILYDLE
Put plainly: EMSA; up to 740 nM UBP; EMSA: 50 mM K-acetate, 20 mM Tris-acetate, 10 mM Mg-acetate, 1 mM DTT, pH 7.9, 5-10% glycerol, 70 mM NaCl, 800 ng salmon sperm DNA per 10 ul, room temperature 10 min; footprinting same buffer, 4% glycerol, 8000 ng salmon sperm DNA; pull-down 25 mM HEPES pH 7.5, 150 mM NaCl, 10 mM MgCl, 100 uM ZnCl, 10 mM DTT, 48 C. To be noted: protein: recombinant; tags: MBP tag removed by Factor Xa; 3 extra vector residues at N-terminus; chain copies: 2; label: 5'-32P.

Data set [3] addresses T1, UBP. Put plainly: EMSA; 0-740 nM UBP; EMSA: 50 mM K-acetate, 20 mM Tris-acetate, 10 mM Mg-acetate, 1 mM DTT, pH 7.9, 5-10% glycerol, 70 mM NaCl, 800 ng salmon sperm DNA per 10 ul, room temperature 10 min; footprinting same buffer, 4% glycerol, 8000 ng salmon sperm DNA; pull-down 25 mM HEPES pH 7.5, 150 mM NaCl, 10 mM MgCl, 100 uM ZnCl, 10 mM DTT, 48 C. The note with it: protein: recombinant; tags: MBP tag removed by Factor Xa; 3 extra vector residues at N-terminus; chain copies: 2; label: 5'-32P; blunt. In general terms: Mobility shift assays separate free from complexed probe on a gel.

For “UBP (ucm-binding protein), recombinant wild type (from UniProt F0NFD3 1-111)”, in data set [1], the stoichiometry N amounted to 2.
For the molecule AATTCTTTTGTATAATGGTT (ssDNA) [ucm 20 nt lower strand (P18)], the binding result in data set [2] is listed as “no binding”.

B1: ucm 20 bp (P17/P18) (dsDNA)
DNA 1: AACCATTATACAAAAGAATT
DNA 2: AATTCTTTTGTATAATGGTT
Turning to B1, the binding result in data set [3] is “binds”.
Consider AACCATTATACAAAAGAATT (ssDNA) [ucm 20 nt top strand (P17)], for which the binding result in data set [2] was “no binding”.
